Data: publication PMC3413146 (Nucleic Acids Research, 2012)

Biological target: T1, RECQL4 (endogenous) (human (endogenous in HeLa), UniProt O94761 1-1208)
T1 sequence (looked up): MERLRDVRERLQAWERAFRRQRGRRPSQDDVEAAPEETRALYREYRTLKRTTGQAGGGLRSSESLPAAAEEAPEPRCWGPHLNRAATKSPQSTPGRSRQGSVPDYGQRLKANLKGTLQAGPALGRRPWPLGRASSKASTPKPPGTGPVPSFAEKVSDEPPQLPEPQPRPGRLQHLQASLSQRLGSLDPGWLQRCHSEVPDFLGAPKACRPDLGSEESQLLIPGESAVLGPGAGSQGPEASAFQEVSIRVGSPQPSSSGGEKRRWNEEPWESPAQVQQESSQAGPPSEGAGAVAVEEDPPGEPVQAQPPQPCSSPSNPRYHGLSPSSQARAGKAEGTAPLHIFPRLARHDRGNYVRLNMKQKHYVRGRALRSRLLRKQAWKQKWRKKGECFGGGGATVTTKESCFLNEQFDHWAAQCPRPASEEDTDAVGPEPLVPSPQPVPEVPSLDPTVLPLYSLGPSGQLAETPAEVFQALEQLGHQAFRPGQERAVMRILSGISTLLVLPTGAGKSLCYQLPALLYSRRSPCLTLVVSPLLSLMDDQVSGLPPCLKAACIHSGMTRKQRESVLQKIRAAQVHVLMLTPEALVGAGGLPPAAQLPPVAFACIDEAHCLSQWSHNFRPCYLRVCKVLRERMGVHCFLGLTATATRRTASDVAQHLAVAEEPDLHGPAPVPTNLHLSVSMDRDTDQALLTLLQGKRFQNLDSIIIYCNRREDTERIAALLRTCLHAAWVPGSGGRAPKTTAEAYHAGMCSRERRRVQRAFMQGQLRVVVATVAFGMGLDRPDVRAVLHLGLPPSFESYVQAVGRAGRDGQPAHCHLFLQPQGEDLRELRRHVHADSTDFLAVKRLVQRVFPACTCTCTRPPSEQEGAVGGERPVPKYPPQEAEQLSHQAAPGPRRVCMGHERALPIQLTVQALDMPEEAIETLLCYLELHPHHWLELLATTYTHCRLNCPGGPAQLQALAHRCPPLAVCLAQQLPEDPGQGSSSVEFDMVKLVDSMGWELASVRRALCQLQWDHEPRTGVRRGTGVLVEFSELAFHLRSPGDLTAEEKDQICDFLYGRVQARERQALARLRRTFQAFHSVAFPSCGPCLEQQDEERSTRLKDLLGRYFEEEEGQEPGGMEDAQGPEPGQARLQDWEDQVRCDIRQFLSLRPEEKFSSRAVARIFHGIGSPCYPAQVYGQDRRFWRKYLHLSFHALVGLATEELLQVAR
Assay: co-IP

B1: BLM (endogenous) (natural protein)
chain: not shown
fold change of the co-immunoprecipitated BLM signal, S-phase against G0–G1 phase: ~5 fold
